Assay results reported in patent US20040073001A1 (Kyowa Kirin, published 2004).

How the values were obtained:
[1] = target: T1, GAL4 BD fusion of the C-terminal half of the β-catenin arm (residues 391 to 664 of mouse β-catenin, armadillo … (yeast; mouse, UniProt P04386 1-147; Q02248 391-664); assay: yeast two-hybrid, β-galactosidase activity
T1 construct: Two-hybrid bait; also called C-terminal half of the β-catenin arm (armadillo repeats 7-12)
Source text: (§1) The respective bait plasmids were cotransfected with the B9L cDNA fragment-expressing clone obtained by the two-hybrid system in Example 1 into yeast HF7C strain, and the binding between the B9L protein and the respective β-catenin partial fragments were examined by the existence of β-galactosidase activity in the transformants. […] Thus, it was considered that the B9L protein binds to the N-terminal region of β-catenin arm (armadillo repeats 1-6).
(§2) In order to further examine which region of the B9L protein binds to the β-catenin arm, two-hybrid system was performed as follows. […] Each plasmid was cotransfected with the β-catenin arm bait plasmid prepared in Example 1 into yeast HF7C strain, and the binding of each B9L protein partial fragment and β-catenin arm was examined based on the presence or absence of β-galactosidase activity in the transformants. […] Thus, the B9L protein was indicated to bind to the β-catenin arm at the region of residues 292-439 in the amino acid sequence represented by SEQ ID NO: 2.

[2] = target: T2, GAL4 BD fusion of the N-terminal half of the β-catenin arm (residues 141 to 390 of mouse β-catenin, armadillo … (yeast; mouse, UniProt P04386 1-147; Q02248 141-390); assay: yeast two-hybrid, β-galactosidase activity
T2 construct: Two-hybrid bait; also called N-terminal half (armadillo repeats 1-6) of the β-catenin arm
Source text: as §1, §2

[3] = target: T3, GAL4 BD fusion of almost the entire β-catenin arm (residues 141 to 664 of mouse β-catenin) (yeast; mouse, UniProt P04386 1-147; Q02248 141-664); assay: yeast two-hybrid, β-galactosidase activity
T3 construct: Two-hybrid bait; also called almost entire region
Source text: as §1, §2

[4] = target: T4, GAL4-β-catenin fusion protein (GAL4 BD fused with mouse β-catenin armadillo domain, residues 128 to 683) (yeast; mouse, UniProt P04386 1-147; Q02248 128-683); assay: yeast two-hybrid screening, HIS3 and β-galactosidase reporters
T4 construct: Bait of the yeast two-hybrid system; also called mβ-catenin arm; β-catenin arm bait plasmid
Description: Screening was carried out with […] mouse fetal (Swiss Webster/NIH mouse; 17-day embryo) cDNA library, which is a library to be used for the two-hybrid system and provided by Clontech. This cDNA library contains vector pGAD10 (Clontech) with cDNA insert and, as a selection marker, LEU2 gene involved in leucine biosynthesis in yeast, and can express fusion proteins of GAL4 AD and cDNA-encoding proteins through ADH1 promoter. Specific method for the screening was conducted according to the manual attached to the library from Clontech as follows.
Specifically, both mouse fetal cDNA library for the two-hybrid system and plasmid GAL4-β-catenin prepared in (1) were introduced in yeast Saccharomyces cerevisiae HF7C strain (Clontech). HF7C strain is a yeast strain that is tryptophan-, leucine-, and histidine-auxotrophic. The strain has HIS3 gene on the chromosome wherein the gene is involved in histidine biosynthesis and has been ligated downstream of GAL1 promoter to which GAL4 BD can bind, as well as E. coli-derived β-galactosidase gene lacZ ligated downstream of a nucleotide sequence to which GAL4 BD can bind as reporter genes (Gene 212: 197 (1998)). A transformant containing both plasmid GAL4-β-catenin and cDNA clone of a protein that binds to mβ-catenin arm and expresses the respective fusion proteins, is non-auxotrophic for histidine and is positive in β-galactosidase activity. […]

binding result [1]: no binding
binding result [2]: binds
binding result [3]: binds
binding result [4]: binds
B1: GAL4 AD fusion of the B9L cDNA fragment clone obtained by the two-hybrid system (B9L protein residues 245 to 564, SEQ ID NO: 4) (other, not shown: large carriers)
chain: LANTAAEAVLQGRAESILAYHQQNVPRAKLDQAPKVPPTPEPLPLNTPSAGTPQSQPPPLPPPPPAPGSAPPALPPEGPPEDTSQDLAPNSVGAASTGGGTGGTHPNTPTAATANNPLPPGGDPGSAPGSALLGEATPTGNGQRNLVGSEGLSKEQLEHRERSLQTLRDIERLLLRSGETEPFLKGPPGGAGEGGPPAQAPSAAQPPPSAPPGGLKKYEEPLQSMISQTQSLGGPPLEHEVPGHPQGGDMGQQMNMMMQRLGQDSLTPEQVAWRKLQEEYYEEKRRKEEQIGLHGGRPLQDMVGMGGMMGRGPPPPYHSK
notes: Expressed in yeast HF7C as prey of the two-hybrid system; also called B9L cDNA fragment-expressing clone; bc19 like protein fragment
